# Laboratory results published in patent publication US20230256114A1, “NOVEL MAYTANSINOIDS AS ADC PAYLOADS AND THEIR USE FOR THE TREATMENT OF CANCER” (priority 2020, published 2023).
# Assays:
# [1] = Size exclusion chromatography (SEC) of ADC monomer and aggregates; format: physicochemical; settings: anti-Trop-2 ADC with the named payload, Cysteine conjugation
# Protocol: Some embodiments of the invention relate to DM1s linked to antibodies via a non-cleavable linker. In this example, anti-Trop-2 antibody was reduced by adding antibody to TCEP (Tris (2-carboxyethyl) phosphine) dissolved in a pH-adjusted PBS EDTA buffer. The antibody/TCEP solution was incubated at 37° C. for 2-3 hrs. The reduced antibodies were buffer exchanged into conjugation reaction buffer. The BI-P203 payload dissolved in DMSO was added to a solution of reduced anti-Trop-2 monoclonal antibody at payload/antibody ratio of 7-30:1 in order to achieve different drug to antibody ratios (DARs). The payload/antibody solution was incubated for 1-2 hr at 20° C. while the reduced antibody was conjugated to BI-P203 payload via the maleimide group. After conjugation was completed, the reaction mixture was desalted and concentrated to yield anti-Trop-2-DM1 ADCs. The biochemical properties of the resulting ADCs were characterized using size-exclusion chromatography high pressure liquid chromatography (SEC-HPLC) to determine purity and aggregation content, and by using hydrophobic interaction chromatography HPLC (HIC-HPLC) to confirm drug loading (DAR). The conjugation procedure is illustrated in FIG. 12. The final ADC products are comprised of four or six or seven DM1-linker molecules. The cysteine conjugation method used in the conjugation process produces more homogenous ADCs compared to lysine conjugation method.
# [2] = target: T1, Trophoblast cell-surface antigen-2 (Trop-2) (human, UniProt P09758 27-323); assay: cell-based or functional assay
# T1 sequence (looked up): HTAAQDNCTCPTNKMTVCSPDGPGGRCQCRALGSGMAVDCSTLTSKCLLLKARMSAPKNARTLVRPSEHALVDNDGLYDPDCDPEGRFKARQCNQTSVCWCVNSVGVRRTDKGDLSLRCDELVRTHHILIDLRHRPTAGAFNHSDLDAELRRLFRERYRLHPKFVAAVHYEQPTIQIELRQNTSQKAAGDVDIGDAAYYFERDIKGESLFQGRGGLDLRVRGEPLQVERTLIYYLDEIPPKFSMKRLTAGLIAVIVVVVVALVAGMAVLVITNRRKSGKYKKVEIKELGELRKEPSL
molecule,measurement,setting,value
COc1cc2cc(c1Cl)N(C)C(=O)C[C@H](OC(=O)C1CCN(C(=O)CCOCCOCCOCCOCCOCCOCCNC(=O)CCN3C(=O)C=CC3=O)CC1)[C@@]1(C)O[C@H]1[C@H](C)[C@@H]1C[C@@](O)(NC(=O)O1)C(OC)/C=C/C=C(\C)C2 (some centres unmarked) [BI-P207],Aggregation rate (%),[1]; DAR 3.4,1.02%
COc1cc2cc(c1Cl)N(C)C(=O)C[C@H](OC(=O)[C@H](C)N(C)C(=O)CCCCCn1cc(COCCOCCOCCOCCNC(=O)CCN3C(=O)C=CC3=O)nn1)[C@@]1(C)O[C@H]1[C@H](C)[C@@H]1C[C@@](O)(NC(=O)O1)C(OC)/C=C/C=C(\C)C2 (some centres unmarked) [BI-P204],Aggregation rate (%),[1]; DAR 2.8,0.65%
COc1cc2cc(c1Cl)N(C)C(=O)C[C@H](OC(=O)C1CCC(CNC(=O)CCOCCOCCOCCOCCNC(=O)CCN3C(=O)C=CC3=O)CC1)[C@@]1(C)O[C@H]1[C@H](C)[C@@H]1C[C@@](O)(NC(=O)O1)C(OC)/C=C/C=C(\C)C2 (some centres unmarked) [BI-P208],Aggregation rate (%),[1]; DAR 3.0,2.04%
same,Aggregation rate (%),[1]; DAR 6.7,9.46%
same,Aggregation rate (%),[1]; DAR 7.3,6.02%
COc1cc2cc(c1Cl)N(C)C(=O)C[C@H](OC(=O)C1CCN(C(=O)CCOCCOCCOCCOCCNC(=O)CCN3C(=O)C=CC3=O)CC1)[C@@]1(C)O[C@H]1[C@H](C)[C@@H]1C[C@@](O)(NC(=O)O1)C(OC)/C=C/C=C(\C)C2 (some centres unmarked) [BI-P206],Aggregation rate (%),[1]; DAR 3.6,0.76%
"Anti-Trop-2-BI-P203 (antibody, V domains shown, BI-P203 maytansinoid drug-linker on reduced cysteines via the maleimide group; positions not given; DAR 3.5, 5.1 or 7) VH: SALMSRLTISKDTSKNQFSLKLSSVTAADTAVYYCARDENWDGAWFAYWGQGTLVTVSS VL: DIVMTQSPDSLAVSLGERATINCKSSQSLLNSGTRKNYLAWYQQKPGQPPKLLISWASSRESGVPDRFSGSGSGTDFTLTISSLQAEDVAVYYCKQSYNLFTFGGGTKVEIKR","IC50 (nM), in vitro cytotoxicity (CCK-8, 72 h), BxPC-3 cells (TROP2 +++), ADC at DAR 3.5",[2],0.48 nM
same,"IC50 (nM), in vitro cytotoxicity (CCK-8, 72 h), BxPC-3 cells (TROP2 +++), ADC at DAR 7",[2],0.59 nM
same,"IC50 (nM), in vitro cytotoxicity (CCK-8, 72 h), Colo205 cells (TROP2 +), ADC at DAR 7",[2],31.8 nM
same,"IC50 (nM), in vitro cytotoxicity (CCK-8, 72 h), MDA-MB-468 cells (TROP2 ++), ADC at DAR 5.1",[2],1.2 nM
same,"IC50 (nM), in vitro cytotoxicity (CCK-8, 72 h), MDA-MB-468 cells (TROP2 ++), ADC at DAR 7",[2],0.77 nM
same,"IC50 (nM), in vitro cytotoxicity (CCK-8, 72 h), NCI-N87 cells (TROP2 ++/+), ADC at DAR 3.5",[2],8.93 nM
same,"IC50 (nM), in vitro cytotoxicity (CCK-8, 72 h), NCI-N87 cells (TROP2 ++/+), ADC at DAR 7",[2],0.62 nM
"Anti-Trop-2-BI-P207 (antibody, V domains shown, BI-P207 maytansinoid drug-linker on cysteines; positions not given; DAR 3.4 or 4.5) VH: SALMSRLTISKDTSKNQFSLKLSSVTAADTAVYYCARDENWDGAWFAYWGQGTLVTVSS VL: DIVMTQSPDSLAVSLGERATINCKSSQSLLNSGTRKNYLAWYQQKPGQPPKLLISWASSRESGVPDRFSGSGSGTDFTLTISSLQAEDVAVYYCKQSYNLFTFGGGTKVEIKR","IC50 (nM), in vitro cytotoxicity (CCK-8, 72 h), BxPC-3 cells (TROP2 +++), ADC at DAR 3.4",[2],2.09 nM
same,"IC50 (nM), in vitro cytotoxicity (CCK-8, 72 h), MDA-MB-468 cells (TROP2 ++), ADC at DAR 4.5",[2],4.29 nM
same,"IC50 (nM), in vitro cytotoxicity (CCK-8, 72 h), NCI-N87 cells (TROP2 ++/+), ADC at DAR 3.4",[2],33.8 nM
"Anti-Trop-2-BI-P204 (antibody, V domains shown, BI-P204 maytansinoid drug-linker on cysteines; positions not given; DAR 2.8 or 3.9) VH: SALMSRLTISKDTSKNQFSLKLSSVTAADTAVYYCARDENWDGAWFAYWGQGTLVTVSS VL: DIVMTQSPDSLAVSLGERATINCKSSQSLLNSGTRKNYLAWYQQKPGQPPKLLISWASSRESGVPDRFSGSGSGTDFTLTISSLQAEDVAVYYCKQSYNLFTFGGGTKVEIKR","IC50 (nM), in vitro cytotoxicity (CCK-8, 72 h), BxPC-3 cells (TROP2 +++), ADC at DAR 2.8",[2],0.38 nM
same,"IC50 (nM), in vitro cytotoxicity (CCK-8, 72 h), MDA-MB-468 cells (TROP2 ++), ADC at DAR 3.9",[2],1.81 nM
same,"IC50 (nM), in vitro cytotoxicity (CCK-8, 72 h), NCI-N87 cells (TROP2 ++/+), ADC at DAR 2.8",[2],17.6 nM
"Anti-Trop-2-Vc-MMAE (antibody, V domains shown, vc-MMAE drug-linker; conjugation site not stated; DAR 4) VH: SALMSRLTISKDTSKNQFSLKLSSVTAADTAVYYCARDENWDGAWFAYWGQGTLVTVSS VL: DIVMTQSPDSLAVSLGERATINCKSSQSLLNSGTRKNYLAWYQQKPGQPPKLLISWASSRESGVPDRFSGSGSGTDFTLTISSLQAEDVAVYYCKQSYNLFTFGGGTKVEIKR","IC50 (nM), in vitro cytotoxicity (CCK-8, 72 h), BxPC-3 cells (TROP2 +++), ADC at DAR 4",[2],0.51 nM
same,"IC50 (nM), in vitro cytotoxicity (CCK-8, 72 h), Colo205 cells (TROP2 +), ADC at DAR 4",[2],0.68 nM
same,"IC50 (nM), in vitro cytotoxicity (CCK-8, 72 h), MDA-MB-468 cells (TROP2 ++), ADC at DAR 4",[2],0.54 nM
same,"IC50 (nM), in vitro cytotoxicity (CCK-8, 72 h), NCI-N87 cells (TROP2 ++/+), ADC at DAR 4",[2],0.49 nM
"Anti-Trop-2-BI-P205 (antibody, V domains shown, BI-P205 maytansinoid drug-linker on cysteines; positions not given; DAR 3.6, 4.9 or 7.1) VH: SALMSRLTISKDTSKNQFSLKLSSVTAADTAVYYCARDENWDGAWFAYWGQGTLVTVSS VL: DIVMTQSPDSLAVSLGERATINCKSSQSLLNSGTRKNYLAWYQQKPGQPPKLLISWASSRESGVPDRFSGSGSGTDFTLTISSLQAEDVAVYYCKQSYNLFTFGGGTKVEIKR","IC50 (nM), in vitro cytotoxicity (CCK-8, 72 h), BxPC-3 cells (TROP2 +++), ADC at DAR 3.6",[2],0.43 nM
same,"IC50 (nM), in vitro cytotoxicity (CCK-8, 72 h), BxPC-3 cells (TROP2 +++), ADC at DAR 7.1",[2],0.52 nM
same,"IC50 (nM), in vitro cytotoxicity (CCK-8, 72 h), Colo205 cells (TROP2 +), ADC at DAR 7.1",[2],26.1 nM
same,"IC50 (nM), in vitro cytotoxicity (CCK-8, 72 h), MDA-MB-468 cells (TROP2 ++), ADC at DAR 4.9",[2],1.58 nM
same,"IC50 (nM), in vitro cytotoxicity (CCK-8, 72 h), MDA-MB-468 cells (TROP2 ++), ADC at DAR 7.1",[2],0.47 nM
same,"IC50 (nM), in vitro cytotoxicity (CCK-8, 72 h), NCI-N87 cells (TROP2 ++/+), ADC at DAR 3.6",[2],0.282 nM
"Anti-Trop-2-BI-P206 (antibody, V domains shown, BI-P206 maytansinoid drug-linker on cysteines; positions not given; DAR 3.6 or 4.5) VH: SALMSRLTISKDTSKNQFSLKLSSVTAADTAVYYCARDENWDGAWFAYWGQGTLVTVSS VL: DIVMTQSPDSLAVSLGERATINCKSSQSLLNSGTRKNYLAWYQQKPGQPPKLLISWASSRESGVPDRFSGSGSGTDFTLTISSLQAEDVAVYYCKQSYNLFTFGGGTKVEIKR","IC50 (nM), in vitro cytotoxicity (CCK-8, 72 h), BxPC-3 cells (TROP2 +++), ADC at DAR 3.6",[2],0.99 nM
same,"IC50 (nM), in vitro cytotoxicity (CCK-8, 72 h), MDA-MB-468 cells (TROP2 ++), ADC at DAR 4.5",[2],2.66 nM
same,"IC50 (nM), in vitro cytotoxicity (CCK-8, 72 h), NCI-N87 cells (TROP2 ++/+), ADC at DAR 3.6",[2],125 nM
"Anti-Trop-2-SMCC-DM1 (antibody, V domains shown, SMCC-DM1 on lysines; positions not given; DAR 4) VH: SALMSRLTISKDTSKNQFSLKLSSVTAADTAVYYCARDENWDGAWFAYWGQGTLVTVSS VL: DIVMTQSPDSLAVSLGERATINCKSSQSLLNSGTRKNYLAWYQQKPGQPPKLLISWASSRESGVPDRFSGSGSGTDFTLTISSLQAEDVAVYYCKQSYNLFTFGGGTKVEIKR","IC50 (nM), in vitro cytotoxicity (CCK-8, 72 h), BxPC-3 cells (TROP2 +++), ADC at DAR 4",[2],1.01 nM
same,"IC50 (nM), in vitro cytotoxicity (CCK-8, 72 h), Colo205 cells (TROP2 +), ADC at DAR 4",[2],56.4 nM
same,"IC50 (nM), in vitro cytotoxicity (CCK-8, 72 h), MDA-MB-468 cells (TROP2 ++), ADC at DAR 4",[2],4.88 nM
same,"IC50 (nM), in vitro cytotoxicity (CCK-8, 72 h), NCI-N87 cells (TROP2 ++/+), ADC at DAR 4",[2],2.88 nM
"Anti-Trop-2-BI-P209 (antibody, V domains shown, BI-P209 maytansinoid drug-linker on cysteines; positions not given; DAR 6.2) VH: SALMSRLTISKDTSKNQFSLKLSSVTAADTAVYYCARDENWDGAWFAYWGQGTLVTVSS VL: DIVMTQSPDSLAVSLGERATINCKSSQSLLNSGTRKNYLAWYQQKPGQPPKLLISWASSRESGVPDRFSGSGSGTDFTLTISSLQAEDVAVYYCKQSYNLFTFGGGTKVEIKR","IC50 (nM), in vitro cytotoxicity (CCK-8, 72 h), Colo205 cells (TROP2 +), ADC at DAR 6.2",[2],> 500 nM
same,"IC50 (nM), in vitro cytotoxicity (CCK-8, 72 h), MDA-MB-468 cells (TROP2 ++), ADC at DAR 6.2",[2],5.37 nM
"Anti-Trop-2-BI-P208 (antibody, V domains shown, BI-P208 maytansinoid drug-linker on cysteines; positions not given; DAR 3.0 or 4.3) VH: SALMSRLTISKDTSKNQFSLKLSSVTAADTAVYYCARDENWDGAWFAYWGQGTLVTVSS VL: DIVMTQSPDSLAVSLGERATINCKSSQSLLNSGTRKNYLAWYQQKPGQPPKLLISWASSRESGVPDRFSGSGSGTDFTLTISSLQAEDVAVYYCKQSYNLFTFGGGTKVEIKR","IC50 (nM), in vitro cytotoxicity (CCK-8, 72 h), BxPC-3 cells (TROP2 +++), ADC at DAR 3.0",[2],0.67 nM
same,"IC50 (nM), in vitro cytotoxicity (CCK-8, 72 h), MDA-MB-468 cells (TROP2 ++), ADC at DAR 4.3",[2],2.22 nM
same,"IC50 (nM), in vitro cytotoxicity (CCK-8, 72 h), NCI-N87 cells (TROP2 ++/+), ADC at DAR 3.0",[2],6.43 nM
